Consider six molecules from patent US20220411487A1 (Regeneron, published 2022).

Experiment [1] addresses T1, hTMPRSS6_S762A-MMH (human, UniProt Q8IU80 77-811).
T1 construct: also called REGN5330; human TMPRSS6_S762A-MMH
Description: SPR, mAb captured via anti-hFc, 25 C. The method, then:
(§1) The equilibrium dissociation constant (KD) for TMPRSS6 binding to different TMPRSS6 monoclonal antibodies (mAbs) was determined using a real-time surface plasmon resonance biosensor using a Biacore 4000 instrument. All binding studies were performed in 10 mM HEPES, 150 mM NaCl, 3 mM EDTA, and 0.05% v/v Surfactant Tween-20, pH 7.4 (HBS-ET) running buffer at 25° C. and 37° C. The Biacore CM5 sensor chip surface was first derivatized by amine coupling with a human Fc specific mouse mAb to capture different TMPRSS6 mAbs. […] Different concentrations (100 nM to 3.7 nM, 3-fold serial dilution) of the TMPRSS6 reagent proteins prepared in HBS-EP running buffer were injected over the TMPRSS6 mAb captured surface for 150 seconds at a flow rate of 30 μL/min and their dissociation in HBS-ET running buffer was monitored for 10 minutes. At the end of each cycle, the TMPRSS6 mAb captured surface was regenerated using a 12 second injection of 20 mM phosphoric acid.
(§2) The association rate (kₐ) and dissociation rate (kd) were determined by fitting the real-time binding sensorgrams to a 1:1 binding model with mass transport limitation using Scrubber 2.0 (BioLogic Software) curve-fitting software. Binding dissociation equilibrium constant (KD) and dissociative half-life (t½) were calculated from the kinetic rates as: […]
In general terms: SPR reads the build-up and loss of mass on a sensor chip optically.

Experiment [2] has as its target T2, mfTMPRSS6_S751A-MMH (Macaca fascicularis, UniProt Q8IU80 77-811 (human entry)).
T2 construct: also called REGN5977; Macaca fascicularis TMPRSS6 extracellular domain with a S751A mutation and a C-terminal myc-myc-hexahistidine tag
T2 chain: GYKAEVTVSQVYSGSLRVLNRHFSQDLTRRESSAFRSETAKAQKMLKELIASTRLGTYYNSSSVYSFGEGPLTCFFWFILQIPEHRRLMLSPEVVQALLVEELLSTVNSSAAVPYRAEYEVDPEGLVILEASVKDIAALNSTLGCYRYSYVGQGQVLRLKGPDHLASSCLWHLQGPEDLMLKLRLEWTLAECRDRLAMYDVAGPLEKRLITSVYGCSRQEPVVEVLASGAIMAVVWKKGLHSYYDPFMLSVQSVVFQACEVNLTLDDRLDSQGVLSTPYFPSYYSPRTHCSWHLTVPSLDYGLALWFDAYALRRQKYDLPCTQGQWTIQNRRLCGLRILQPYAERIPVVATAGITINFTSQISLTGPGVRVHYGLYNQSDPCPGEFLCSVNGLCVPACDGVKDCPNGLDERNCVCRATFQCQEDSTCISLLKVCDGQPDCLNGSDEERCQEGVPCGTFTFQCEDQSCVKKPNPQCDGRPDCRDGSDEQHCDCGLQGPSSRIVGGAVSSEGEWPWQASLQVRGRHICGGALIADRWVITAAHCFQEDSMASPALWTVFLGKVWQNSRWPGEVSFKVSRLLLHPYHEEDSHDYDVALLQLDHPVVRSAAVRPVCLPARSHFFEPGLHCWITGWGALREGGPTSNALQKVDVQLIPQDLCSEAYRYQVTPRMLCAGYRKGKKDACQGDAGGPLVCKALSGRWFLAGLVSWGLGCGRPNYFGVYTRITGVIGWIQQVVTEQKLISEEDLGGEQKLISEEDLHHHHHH
The experiment can be described thus: SPR, mAb captured via anti-hFc, 25 C. The method, then:
as §1, §2

Experiment [3] has as its target T3, full length cynomolgous monkey TMPRSS6 on HEK293 cells (HEK293/mfTMPRSS6) (cynomolgous monkey/Macaca fascicularis, UniProt Q8IU80 10-811 (human entry)).
T3 chain: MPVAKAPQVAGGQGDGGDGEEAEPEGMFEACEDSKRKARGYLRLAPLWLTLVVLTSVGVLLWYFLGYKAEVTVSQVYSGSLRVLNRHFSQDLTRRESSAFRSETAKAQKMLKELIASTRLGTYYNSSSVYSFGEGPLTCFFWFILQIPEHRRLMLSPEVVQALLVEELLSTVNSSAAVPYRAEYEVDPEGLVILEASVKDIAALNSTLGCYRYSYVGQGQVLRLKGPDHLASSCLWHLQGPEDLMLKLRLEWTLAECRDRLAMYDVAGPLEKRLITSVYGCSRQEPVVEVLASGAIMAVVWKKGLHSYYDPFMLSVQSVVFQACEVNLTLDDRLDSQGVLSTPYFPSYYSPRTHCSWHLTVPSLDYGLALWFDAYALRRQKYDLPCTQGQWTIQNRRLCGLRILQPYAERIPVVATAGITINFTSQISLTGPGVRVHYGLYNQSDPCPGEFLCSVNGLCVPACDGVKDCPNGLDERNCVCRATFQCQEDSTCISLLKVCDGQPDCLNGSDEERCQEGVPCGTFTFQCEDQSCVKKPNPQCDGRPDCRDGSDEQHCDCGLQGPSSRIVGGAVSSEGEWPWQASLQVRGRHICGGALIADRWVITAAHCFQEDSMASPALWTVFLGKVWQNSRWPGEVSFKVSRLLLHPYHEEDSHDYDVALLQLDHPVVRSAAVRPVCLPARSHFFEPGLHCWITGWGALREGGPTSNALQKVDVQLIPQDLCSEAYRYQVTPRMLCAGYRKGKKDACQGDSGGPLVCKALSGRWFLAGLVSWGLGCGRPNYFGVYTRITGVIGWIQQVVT
The experiment can be described thus: flow cytometry, HEK293 cells expressing target. The method, then: To assess the binding of anti-TMPRSS6 antibodies of the present disclosure to the receptor expressed on the cell surface, antibodies (including an IgG subclass control) were serially diluted in assay buffer (PBS without Ca⁺⁺ and Mg⁺⁺ containing 2% FBS) from 375 nM to 22.9 pM (plus a sample containing assay buffer alone without test molecule) and incubated with 0.5×10⁶ cells/well at 4° C. for 30 minutes in assay buffer. […] Cells were fixed using BD CytoFix™ (Becton Dickinson, #554655) and analyzed on either the IQue® or IQue®Plus Flow Cytometers (Intellicyt®). Unstained and secondary antibody alone controls were also tested for all cell lines. The results were analyzed using ForeCyt® (IntelliCyt®) software to determine the geometric means of fluorescence for viable cells and binding ratio was calculated by normalizing the geometric mean value of the test condition by the geometric mean value of the corresponding unstained cells.

Positions count from the first letter of the chain named. Names and notes keep the numbering of the source.

B1: REGN7977 (antibody, V domains shown)
VH: EVQLVESGGGLVKPGGSLRVSCAASGVTFSNVWMSWVRQVPGKGLEWVGRIKSKTDGGTTDYAAPVKGRFTISKDDSKNTLFLQMNSLKTEDTAVYYCTTETGDFWSGYYPRFQHWGQGTLVTVSS
VL: DIQMTQSPSSLSASVGDRVTITCRASQYISTYLNWYQQKPGKAPSLLIYAASSLQSGVPSRFSGSGSGTDFTLTISSLQPEDFASYSCQQSYSTPPYTFGQGTKLEIKR
notes: fully human; human IgG4 Fc with hinge S108P; also called mAb41465
One may read the Kd as the constant that tells how readily two partners part at equilibrium. A word on the koff: it is a measure of how fast the partners let go of each other. One may read the kon as a measure of how fast the partners come together. For orientation: t½ means the time needed for the level to fall by half in the phase considered. What is called EC50 is the concentration that produces a half-maximal response. With B1, in experiment [1], the “100 nM Ag Bound” value came to 159 RU, the Kd was found to be 1.69 nM, the koff is 0.000368 s⁻¹ and the kon is 218000 M⁻¹ s⁻¹. For the same molecule, the t½ in experiment [1] amounted to 0.517 h. In addition, in experiment [2], the “100 nM Ag Bound” value was determined as 155 RU, the Kd came to 3.09 nM, the koff stood at 0.000697 s⁻¹ and the kon stood at 225000 M⁻¹ s⁻¹. This molecule yielded a t½ in experiment [2] of 0.283 h. Besides, in experiment [3], the EC50 is 2.4 nM and the “Max. Fold Binding” value is 78 fold over unstained control.

B2: REGN7969 (antibody, human IgG4 S228P, kappa, V domains shown)
VH: QVQLVESGGGVVQPGRSLRLSCAASGFTFNNYGMHWVRQAPGKGLEWVAIISYDGSNEYYSDSVKGRFTISRDNSKNTLYLQMNSLRAEDTAVYYCARDQDYGGNLFHYWGQGTLVTVSS
VL: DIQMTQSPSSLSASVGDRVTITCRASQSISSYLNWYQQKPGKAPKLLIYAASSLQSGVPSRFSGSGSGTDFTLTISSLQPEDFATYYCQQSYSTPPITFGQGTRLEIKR
notes: fully human; human IgG4 Fc with hinge S108P; also called mAb37746
As for B2, in experiment [1], the “100 nM Ag Bound” value came out at 89 RU, the Kd was determined as 0.45 nM, the koff came out at 0.000182 s⁻¹ and the kon worked out at 404000 M⁻¹ s⁻¹. Moreover, the t½ in experiment [1] came to 1.07 h. In experiment [2], the “100 nM Ag Bound” value turned out to be 92 RU, the Kd was determined as 0.435 nM, the koff is 0.000182 s⁻¹ and the kon was determined as 419000 M⁻¹ s⁻¹. Besides, the t½ in experiment [2] was 1.05 h. In experiment [3], the EC50 is 1.2 nM and the “Max. Fold Binding” value is 50 fold over unstained control.

B3: REGN7971 (antibody, human IgG4 S228P, kappa, V domains shown)
VH: B2 VH with N30S, N31T, E58D, S61L, S85N, R98K, D101G, H108A, Y109S
VL: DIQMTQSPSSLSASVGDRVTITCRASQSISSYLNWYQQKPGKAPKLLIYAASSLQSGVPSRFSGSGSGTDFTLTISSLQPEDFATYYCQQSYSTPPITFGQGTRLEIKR
notes: fully human; human IgG4 Fc with hinge S108P; also called mAb37763
For the molecule B3, in experiment [1], the “100 nM Ag Bound” value came to 103 RU; the affinity, expressed as Kd, was 0.322 nM; the koff stood at 0.000147 s⁻¹; the kon stood at 455000 M⁻¹ s⁻¹. For the same molecule, the t½ in experiment [1] came to 1.32 h. Moreover, in experiment [2], the “100 nM Ag Bound” value was determined as 109 RU, the Kd was 0.283 nM, the koff was found to be 0.000138 s⁻¹ and the kon is 487000 M⁻¹ s⁻¹. The t½ in experiment [2] was 1.4 h. In experiment [3], the EC50 was 1.5 nM and the “Max. Fold Binding” value was 75 fold over unstained control.

B4: REGN7999 (antibody, human IgG4 S228P, kappa, V domains shown)
VH: EVQLVESGGGLVQPGGSLRLSCAASGFTFSSYAMTWVRQAPGKGLEWVSAISGSDTSTYYADSVKGRFTISRDNSKNTLFLQMNSLRAEDTAVYYCAKHQDYDFSYYYSAMDVWGQGTTVTVSS
VL: DIQMTQSPSSLSASVGDRVIITCRASQDFNSWLAWYQQKPGKAPKLLIYAASSLQSGVPSRFSGSGSGTDFTLTISSLQPEDFATYYCQQTDSFPFTFGPGTKVDIKR
notes: fully human; human IgG4 Fc with hinge S108P; also called mAb41450
With B4, in experiment [1], the “100 nM Ag Bound” value stood at 176 RU, the equilibrium dissociation constant (Kd) was found to be 0.243 nM, the koff was 6.49e-05 s⁻¹ and the kon stood at 267000 M⁻¹ s⁻¹. The t½ in experiment [1] worked out at 2.97 h. Besides, in experiment [2], the “100 nM Ag Bound” value is 185 RU, binding was put at a Kd of 0.11 nM, the koff was 7.23e-05 s⁻¹ and the kon was 660000 M⁻¹ s⁻¹. Moreover, the t½ in experiment [2] turned out to be 2.67 h. Further, in experiment [3], a half-maximal response (EC50) required 2 nM and the “Max. Fold Binding” value is 79 fold over unstained control.

B5: REGN8023 (antibody, human IgG4 S228P, kappa, V domains shown)
VH: EVQLVESGGGLVKPGGSLRISCAASGFIFVDYAMHWVRQAPGKGLEWVSGISWNSGSIGYADSVKGRFTISRDNAKKSLYLQMSGLRPEDTALYYCVKSGFYYVRSYFDNWGQGTLVTVSS
VL: DIVMTQSPLSLPVTPGEPASISCRSSQSLLDSDDGNTYLDWYLRKPGQSPQLLIYTLSYRASGVPDRFSGSGSGTDFTLKISRVEADDVGVYYCMQRIEFPLTFGGGTKVEIKR
notes: fully human; human IgG4 Fc with hinge S108P; also called mAb37699
On to B5, for which, in experiment [1], the “100 nM Ag Bound” value amounted to 205 RU, binding was characterised by a dissociation constant (Kd) of 0.128 nM, the koff came to 8.6e-05 s⁻¹ and the kon is 671000 M⁻¹ s⁻¹. In experiment [1], this molecule yielded a t½ of 2.23 h. In experiment [2], the “100 nM Ag Bound” value is 203 RU, the Kd is 0.065 nM, the koff turned out to be 5.79e-05 s⁻¹ and the kon was found to be 891000 M⁻¹ s⁻¹. For the same molecule, the t½ in experiment [2] was found to be 3.32 h. For the same molecule, in experiment [3], the EC50 worked out at 0.94 nM and the “Max. Fold Binding” value is 52 fold over unstained control.

B6: REGN7974 (antibody, human IgG4 S228P, kappa, V domains shown)
VH: EVQLVESGGGLVQPGRSLRLSCIASGFNFGDYGMSWVRQAPGKGLEWVGFIRSKAYGGTTEYAASVKGRFTISRDDSKSIAYLQMNSLKTEDAAMYYCSRDYYDILTGYYGDYWGQGTLVTVSS
VL: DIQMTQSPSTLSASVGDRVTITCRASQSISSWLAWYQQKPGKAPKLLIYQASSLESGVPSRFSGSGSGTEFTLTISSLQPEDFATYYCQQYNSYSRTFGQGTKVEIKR
notes: fully human; human IgG4 Fc with hinge S108P; also called mAb41422
Take B6: in experiment [1], the “100 nM Ag Bound” value came to 191 RU, binding was put at a Kd of 2.63 nM, the koff came to 0.00068 s⁻¹ and the kon stood at 259000 M⁻¹ s⁻¹. Further, in experiment [1], the t½ worked out at 0.283 h. Also, in experiment [2], the “100 nM Ag Bound” value was 188 RU, the Kd was 7.18 nM, the koff came to 0.00192 s⁻¹ and the kon worked out at 268000 M⁻¹ s⁻¹. The molecule also came in with a t½ in experiment [2] of 0.1 h. For the same molecule, in experiment [3], a half-maximal response (EC50) required 3.6 nM and the “Max. Fold Binding” value was 50 fold over unstained control.
